In the supplement of paper PMC7877785:
± gives the uncertainty stated by the source.

Experiment: self-splicing fitness, log relative to wild type (ln ratio); higher = more splicing; Tetrahymena group I intron in knt gene, E. coli kanamycin selection, DiMSum; sequences stand for … in CUCUCU…GGAGGGAAAAGUUAUCAGGCAUGCACCUGGUAGCUAGUCUUUAAACCAAUAGAUUGCAUCGGUUUAAAAGGCAAGACCGUCAAAUUGCGGGAAAGGGGUCAACAGCCGUUCAGUACCAAGUCUCAGGGGAAACUUUGAGAUGGCCUUGCAAAGGGUAUGGUAAUAAGCUGACGGACAUGGUCCUAACCACGCAGCCAAGUCCUAAGUCAACAGAUCUUCUGUUGAUAUGGAUGCAGUUCACAGACUAAAUGUCGGUCGGGGAAGAUGUAUUCUUCUCAUAAGAUAUAGUCGGACCUCUCCUUAAUGGGAGCUAGCGGAUGAAGUGAUGCAACACUGGAGCCGCUGGGAACUAAUUUGUAUGCGAAAGUAUAUUGAUUAGUUUUGGAGUACUCGUGGUCG
Method in brief: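 Six replicate transformations of E. coli BL21(DE3) with a pET-22b(+) library were grown overnight at 37°C or 30°C. The library randomised all eight P1ex-region intron nucleotides, the intron lying in the knt kanamycin-resistance gene, and plates were LB agar with or without 25 μg/mL kanamycin plus 100 μg/mL carbenicillin, 50 μM IPTG and 0.2% rhamnose. Pooled colonies were amplicon-sequenced on an Illumina HiSeq 2500, and fitness is the DiMSum error-weighted combination of wild-type-normalised replicate fold changes, kanamycin versus none.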

Sequence	self-splicing fitness (ln) (30 °C)	self-splicing fitness (ln) (37 °C)
GGUGAGCAAUAUUACGUAAC	-2.35 ± 0.43	-1.22 ± 0.28
GGUGAGCAAUAUUACGUUAA	-1.89 ± 0.18	-1.09 ± 0.24
GGUGAGCAAUAUUACGUUUA	-3.01 ± 0.28	-1.44 ± 0.18
GGUUAGCAAUAUUACGAAUC	-1.76 ± 0.16	-1.06 ± 0.24
GGUUAGCAAUAUUACGCAAG	-2.45 ± 0.16	-1.01 ± 0.12
GGUUAGCAAUAUUACGCGAG	-1.9 ± 0.2	-0.416 ± 0.13
GGUUAGCAAUAUUACGCUCC	-1.71 ± 0.39	0.76 ± 0.48
GGUUAGCAAUAUUACGCUGC	-1.38 ± 0.26	–
GGUUAGCAAUAUUACGGACA	-0.743 ± 0.12	0.373 ± 0.15
GGUUAGCAAUAUUACGGCCG	-0.999 ± 0.19	-0.019 ± 0.25
GGUUAGCAAUAUUACGGGAU	-3.13 ± 0.26	-1.4 ± 0.24
GGUUAGCAAUAUUACGGGCU	-3.26 ± 0.41	-1.68 ± 0.32
GGUUAGCAAUAUUACGGGUG	-1.7 ± 0.1	-1.08 ± 0.12
GGUUAGCAAUAUUACGUAGG	-2.51 ± 0.18	-1.03 ± 0.14
GGUUAGCAAUAUUACGUGCA	-0.869 ± 0.19	-0.121 ± 0.18
GGUUAGCAAUAUUACGUGGA	-2.72 ± 0.2	-1.08 ± 0.14
GGUUAGCAAUAUUACGUUCA	0.228 ± 0.14	-0.557 ± 0.13
GGUUAGCAAUAUUACGUUUA	-1.5 ± 0.096	-0.992 ± 0.088
GGUUAGCAAUAUUACGUUUU	-1.03 ± 0.055	-0.945 ± 0.083
GUAAAGCAAUAUUACGAAAC	-1.83 ± 0.13	-0.6 ± 0.13
GUAAAGCAAUAUUACGAACU	-0.845 ± 0.11	-0.0974 ± 0.14
GUAAAGCAAUAUUACGAAUC	-1.71 ± 0.14	-0.902 ± 0.14
GUAAAGCAAUAUUACGACGA	0.208 ± 0.073	1.1 ± 0.1
GUAAAGCAAUAUUACGACUA	-0.649 ± 0.097	-0.957 ± 0.11
GUAAAGCAAUAUUACGAUAG	-1.08 ± 0.075	-0.747 ± 0.11
GUAAAGCAAUAUUACGAUUG	-2.98 ± 0.18	-0.942 ± 0.22

Sequence	self-splicing fitness (ln) (30 °C)	self-splicing fitness (ln) (37 °C)
GUAAAGCAAUAUUACGAUUU	-0.348 ± 0.051	0.232 ± 0.065
GUAAAGCAAUAUUACGCAUC	-1.36 ± 0.11	-0.97 ± 0.15
GUAAAGCAAUAUUACGCCAC	–	-1.86 ± 0.24
GUAAAGCAAUAUUACGCCGG	-1.27 ± 0.13	0.13 ± 0.17
GUAAAGCAAUAUUACGCGCU	-1.4 ± 0.075	-0.523 ± 0.096
GUAAAGCAAUAUUACGCGGU	-2.79 ± 0.12	-1.87 ± 0.15
GUAAAGCAAUAUUACGCUAU	-1.22 ± 0.087	-0.23 ± 0.1
GUAAAGCAAUAUUACGCUCG	-0.0287 ± 0.1	0.709 ± 0.13
GUAAAGCAAUAUUACGGAAA	-2.68 ± 0.14	-1.38 ± 0.18
GUAAAGCAAUAUUACGGAAU	-0.906 ± 0.099	-0.779 ± 0.15
GUAAAGCAAUAUUACGGACG	-1.06 ± 0.12	0.298 ± 0.15
GUAAAGCAAUAUUACGGCCG	-0.257 ± 0.087	0.625 ± 0.12
GUAAAGCAAUAUUACGGGUA	-1.02 ± 0.078	-0.464 ± 0.085
GUAAAGCAAUAUUACGGUGU	-1.5 ± 0.056	-0.647 ± 0.07
GUAAAGCAAUAUUACGUAUC	-1.1 ± 0.07	-0.568 ± 0.098
GUAAAGCAAUAUUACGUGCC	-3.19 ± 0.16	-1.93 ± 0.17
GUAAAGCAAUAUUACGUGCG	-0.447 ± 0.065	-0.538 ± 0.069
GUAAAGCAAUAUUACGUUGA	-1.97 ± 0.071	-0.945 ± 0.098
GUAAAGCAAUAUUACGUUGC	-2.38 ± 0.1	-3.2 ± 0.26
GUAAAGCAAUAUUACGUUGG	-1.84 ± 0.12	-1.56 ± 0.13
GUACAGCAAUAUUACGACGU	-0.603 ± 0.075	0.215 ± 0.081
GUACAGCAAUAUUACGAGAG	-2.62 ± 0.29	-2.64 ± 0.25
GUACAGCAAUAUUACGAGCG	-2.59 ± 0.11	-0.624 ± 0.098
GUACAGCAAUAUUACGAGGU	-4.68 ± 0.29	-1.97 ± 0.16
GUACAGCAAUAUUACGAUAG	-3.23 ± 0.16	-0.84 ± 0.13
GUACAGCAAUAUUACGCAAA	-0.875 ± 0.14	-2.48 ± 0.28

Sequence	self-splicing fitness (ln) (30 °C)	self-splicing fitness (ln) (37 °C)
GUACAGCAAUAUUACGCCUG	-2.24 ± 0.25	-0.634 ± 0.19
GUACAGCAAUAUUACGCUCU	-0.911 ± 0.091	-0.379 ± 0.11
GUACAGCAAUAUUACGCUUG	-1.97 ± 0.098	-1.1 ± 0.12
GUACAGCAAUAUUACGGAUG	-2.79 ± 0.2	-1.8 ± 0.17
GUACAGCAAUAUUACGGCGG	-2.78 ± 0.19	-2.66 ± 0.22
GUACAGCAAUAUUACGGGCA	-1.9 ± 0.093	-0.873 ± 0.088
GUACAGCAAUAUUACGUAAA	-2.87 ± 0.14	-1.44 ± 0.16
GUACAGCAAUAUUACGUCUC	-0.298 ± 0.11	-0.182 ± 0.12
GUACAGCAAUAUUACGUGGC	-3.61 ± 0.17	-1.75 ± 0.13
GUACAGCAAUAUUACGUGUA	-3.18 ± 0.16	-2.32 ± 0.14
GUACAGCAAUAUUACGUUCC	-3.44 ± 0.15	-3.48 ± 0.42
GUAGAGCAAUAUUACGAAGU	-2.46 ± 0.23	-0.951 ± 0.17
GUAGAGCAAUAUUACGACUU	-0.172 ± 0.081	0.104 ± 0.1
GUAGAGCAAUAUUACGAUAA	-1.5 ± 0.15	0.242 ± 0.19
GUAGAGCAAUAUUACGAUCC	-1.22 ± 0.21	-0.765 ± 0.28
GUAGAGCAAUAUUACGCAUC	-1.49 ± 0.13	-1.37 ± 0.15
GUAGAGCAAUAUUACGCCGG	-1.41 ± 0.21	-0.336 ± 0.47
GUAGAGCAAUAUUACGCCUC	-0.746 ± 0.27	-0.67 ± 0.37
GUAGAGCAAUAUUACGCUAA	-0.515 ± 0.07	-0.264 ± 0.089
GUAGAGCAAUAUUACGGAUG	-3.96 ± 0.43	-2.08 ± 0.36
GUAGAGCAAUAUUACGGGCG	-1.68 ± 0.12	-1.19 ± 0.15
GUAGAGCAAUAUUACGGUUU	-1.75 ± 0.11	-0.8 ± 0.13
GUAGAGCAAUAUUACGUCAG	-3.1 ± 0.3	-2.07 ± 0.23
GUAGAGCAAUAUUACGUGAG	-2.33 ± 0.15	-0.687 ± 0.16
GUAGAGCAAUAUUACGUGCC	–	-2.12 ± 0.28
